Data from article PMC3006384, “Phosphorylation of Mouse Immunity-Related GTPase (IRG) Resistance Proteins Is an Evasion Strategy for Virulent Toxoplasma gondii” (PLoS Biology, 2010).

Biological target: the molecule itself
Experiment: light scattering; GTP-dependent oligomerisation of recombinant Irga6 monitored by conventional light scattering, as described earlier (ref. 16)

B1: recombinant wt Irga6 (bacterially expressed, from pGEX-4T-2-Irga6) (natural protein)
chain: MGQLFSSPKSDENNDLPSSFTGYFKKFNTGRKIISQEILNLIELRMRKGNIQLTNSAISDALKEIDSSVLNVAVTGETGSGKSSFINTLRGIGNEEEGAAKTGVVEVTMERHPYKHPNIPNVVFWDLPGIGSTNFPPNTYLEKMKFYEYDFFIIISATRFKKNDIDIAKAISMMKKEFYFVRTKVDSDITNEADGKPQTFDKEKVLQDIRLNCVNTFRENGIAEPPIFLLSNKNVCHYDFPVLMDKLISDLPIYKRHNFMVSLPNITDSVIEKKRQFLKQRIWLEGFAADLVNIIPSLTFLLDSDLETLKKSMKFYRTVFGVDETSLQRLARDWEIEVDQVEAMIKSPAVFKPTDEETIQERLSRYIQEFCLANGYLLPKNSFLKEIFYLKYYFLDMVTEDAKTLLKEICLRN
notes: Irga6, mouse immunity-related GTPase (IRG) protein; Expressed as N-terminal GST fusion; also called recombinant Irga6
- binding result: binds
